We go through 2 sequences from paper PMC11046454.

pKd: −log10 of the molar value.

For data set [1], the system named is anti-FITC CAR (E2 scFv, CD8a hinge/TM, 4-1BB, CD3zeta) on CAR-J Jurkat or CAR-T cells (synthetic construct). Briefly: flow cytometry, CAR-T cells. The settings on record: via FITC; Cells 1e6/mL in DPBS, 1% FBS, 5 mM MgCl2, 4 C, 30 min; flow cytometry (pH 6.5 or 7.4 for i-motif; 1 mM ATP where stated). (A flow cytometer gives signals particle by particle.)
Data set [2] shares this test system. Briefly: flow cytometry, CAR-J cells. The settings on record: via FITC; Cells 1e6/mL in DPBS, 1% FBS, 5 mM MgCl2, 4 C, 30 min; flow cytometry (pH 6.5 or 7.4 for i-motif; 1 mM ATP where stated).

With “ACATTCCTAAGTCTGAAACATTACAGCTTGCTACACGAGAAGAGCCGCCATAGTA / TTTATCACCAGGCAGTTGACAGTGTAGCAAGCTGTAATAGATGCGAGGGTCCAATAC / TTTCAACTGCCTGGTGATAAAACGACACTACGTGGGAATCTACTATGGCGGCTCTTC / TTTTCAGACTTAGGAATGTGCTTCCCACGTAGTGTCGTTTGTATTGGACCCTCGCAT [FITC-TDN-Cy5]”, the binding signal (fold vs ssDNA) in data set [1] turned out to be 3.
For “TTTTTTTTTTTTTTTTTTTTTTTTTTTTTTTTTTTTTTTT [FITC-DNA-Cy5]”, in data set [2], the negative-log Kd (pKd) (usually −log10 of the Kd, conventionally taken in molar units) is 7.58.
